Laboratory results reported in the RNAGym collection of RNA variant scans (doi:10.7554/elife.80360).

B1: HDV Ribozyme (parent)
chain: GGCCGGCAUGGUCCCAGCCUCCUCGCUGGCGCCGGCUGGGCAACAUUCCGAGGGGACCGUCCCCUCGGUAAUGGCGAAUGGGACCCA

Variants of: B1
Assay: self-cleavage, relative activity (ratio to wild type); higher = more cleavage; co-transcriptional

Variant	self-cleavage
GGCCGGCAUGGUCCCAGCCUCCUCGCUGGCGCCGGCUGGGCAACGUUCCGAGGGGACCGUCCCCUGGGUAAUGGCGAAUGGGACCCA [A45G C66G]	0.811
GGCCGGCAUGGUCCCAGCCUCCUCGCUGGCGCCGGCUGGGCAACAUUCCGCGGGGACCGUCCCCUCGGUAAUGGAGAAUGGGACCCA [A51C C75A]	0.0449
GGCCGGCAUGGUCCCAGCCUCCUCGCUGGCGCCGGCUGGGCAACAUUACGCGGGGACCGUCCCCUCGGUAAUGGCGAAUGGGACCCA [C48A A51C]	1.03
GGCCGGCAUGGUCCAAGCCUCCUCGCUGGCGCCGGCUGGGCAACAUUCCGAGGGGACCGUCCCCUCGGUAAUAGCGAAUGGGACCCA [C15A G73A]	0.283
GGCCGACAUGGUCCCAGCUUCCUCGCUGGCGCCGGCUGGGCAACAUUCCGAGGGGACCGUCCCCUCGGUAAUGGCGAAUGGGACCCA [G6A C19U]	0.0875
GGCCGGCAUGGUCCCAGCCUCCUGGCUGGCGCCGGCUGGGCAACAUUCCGAGGGGACCGUCCCCUCGGUAAUGGCGAAUGGUACCCA [C24G G82U]	0.0302
GGCCGGCAUGGUCCCAGCCUCCUCGCUGGCGCCGGCCGGGCAACAUUCCGAGGGGACCGUCCCCUCGGUAAUGGCGAAUGGGUCCCA [U37C A83U]	0.534
GGCCGGCAUGGUCCCAGCCUCCUCGCUGGCGCCGGCUGGGCAACAUUCCGAGGGGACCGUCCCCUCGGGAAUGGCGAAUGGGACCAA [U69G C86A]	0.917
GGCCGGCCUGGUCCCAGCCUCCUCGCUGGCGCCGGCUGGGCAACAUUCCGAGGGGACCGUCCCCUCGGUAAUGACGAAUGGGACCCA [A8C G74A]	0.314
GGCCAGCAUGGUCCCAGCCUCCUCGCUGGCGCCGGCUGGGCAACAUUCCGAGGGGACCGUCCCCUCGGUAAUGGCGAAUGUGACCCA [G5A G81U]	0
GGCCGGCAUGGUCCCAUCCUCCUCGCUGGCGCCGGCUGGGCAACAUUCCGAGGGGACCGUUCCCUCGGUAAUGGCGAAUGGGACCCA [G17U C61U]	0.471
GGCCGGCAUGGUCCCAGCCUCCUCGCUGGCGCCGGCUGGGCAACAUUCCGAGGGGACCAUCCCCUCGGUAAUUGCGAAUGGGACCCA [G59A G73U]	0.267
GGCCGGCAUGGUCCCAGCCUCCUCGCUGGCGCCAGCUGGGCAACAUUCCGAGGGGACCGUCCCCUAGGUAAUGGCGAAUGGGACCCA [G34A C66A]	0.286
GGCCCGCAUGGUCCCAGCCUCCUCGCUGGCGCCGGCUGGGCAACAUUCCGAGGGGACCAUCCCCUCGGUAAUGGCGAAUGGGACCCA [G5C G59A]	0.344
GGCCGGCAUGGUCCCAGCCUCCUCGCUAGCGCCGGCUGGGCAACAUUCCGAGGGGACCGUCCCCUCGGUAAAGGCGAAUGGGACCCA [G28A U72A]	0.119
CGCCGGCGUGGUCCCAGCCUCCUCGCUGGCGCCGGCUGGGCAACAUUCCGAGGGGACCGUCCCCUCGGUAAUGGCGAAUGGGACCCA [G1C A8G]	0.123

Variant	self-cleavage
GGCCGGCAUGGUCACAGCCUCCUCGCUGGCGCCGGCUGGGCAACAUUCAGAGGGGACCGUCCCCUCGGUAAUGGCGAAUGGGACCCA [C14A C49A]	0.782
GGCCGGCAUGGUCCCAGCCUCCUCGCUGGCGCCGGCUGGGCAACAUUCCGAGUGGUCCGUCCCCUCGGUAAUGGCGAAUGGGACCCA [G53U A56U]	0.956
GGCCGGCAUGGUCCCAGCCUCCUCGCUGGCCCCGGCUGGGCAACAUUCCGAGGGGACCGUCCCCUCAGUAAUGGCGAAUGGGACCCA [G31C G67A]	0.402
GGCCGGCAUGGUACCAGCCUCCUCGCUGGCGCCGGCUGGGCAACAUUCCGAGAGGACCGUCCCCUCGGUAAUGGCGAAUGGGACCCA [C13A G53A]	0.229
GGCCGGCAUGGUCCCAGCCUCCUCGCUGGCGCCGGCUGGGCAUCAUUCCGAGGGGACCGUCCCCUCGGUAAUGGCGAAUGGGACCGA [A43U C86G]	0.325
GGCCGGCAUGGUCCCAGCCUCCUCGCUGGCGCCGGAUGGGCAGCAUUCCGAGGGGACCGUCCCCUCGGUAAUGGCGAAUGGGACCCA [C36A A43G]	0.277
GGCCGGCAUGGUCCCAGCCUCCUCGCUGGCGCCGGCUGGGCAAAAUUCCGAGGGGACCGUCCCCUCGGUAAUGGCGAAUGCGACCCA [C44A G81C]	0.178
GGCCGGCAUGGUCCCAGCCUCCUCGCUGGCGCCGGCUGGGCAAUAUUCCGAGGGGACUGUCCCCUCGGUAAUGGCGAAUGGGACCCA [C44U C58U]	0.755
GGCCGGCAUGGUCCCAGCCUCCUCGCUGCCGCCGGCUGGGCAACAUUCCGAAGGGACCGUCCCCUCGGUAAUGGCGAAUGGGACCCA [G29C G52A]	0.0615
GGCCGGCAUGGUCCCAGCCUCCUCGCUGGCGCCGGCUGGGCAGCAUUCCGAGGGGACCGUCCCCUCGGGAAUGGCGAAUGGGACCCA [A43G U69G]	0.867
GGCCGGCAUGGUCCCAGCCUCCUCGCUGGCGCCGGCUGGGCAACAUUUCGAGGGGACCGUCCCCUCGGUAAUGGCGAAUGGGACCUA [C48U C86U]	1.09
GGCCGGCAUGGUCCCAGCCUCCUCGCUGGCGCCGGCUGGGCAACAUCCCGAGGGGACCGUCCCCUCGGUAAUGGCGGAUGGGACCCA [U47C A77G]	0.612
GGCCGGCAUGGUCCCAACCUCCUCGCUGGCGCCGGCUGGGCAGCAUUCCGAGGGGACCGUCCCCUCGGUAAUGGCGAAUGGGACCCA [G17A A43G]	0.277
GGCCGGCAUGGUCCCAGCCUCCUCGCAGGCGCCGGCUGGGCAACAUUCCGAGGGGACCGUCCCCUCGGUAAUGGCGAAUGGGACCUA [U27A C86U]	0.966
GGCCGGGAUGGUCCCAGCCUCCUCGCUGGCGCCGGCUGGGCAACAUUCCGAGGGGACCGUCCCCUCGGCAAUGGCGAAUGGGACCCA [C7G U69C]	0.277
GGCCGGCAUGGUCCCACCCUCCUCGCUGGCGCCGGCUGGGCAACAUUCCGAGGGGACCGUACCCUCGGUAAUGGCGAAUGGGACCCA [G17C C61A]	0.185
